The target of data set [1] is recombinant IgG1(kappa) 4E10. Briefly: competitive ELISA; converted by the filing on the assumption of 25 kDa and a monomer. Background: In an ELISA, binding on a coated surface is turned into a signal by an enzyme label.
The target of data set [2] is recombinant IgG1(kappa) 4E10. Briefly: competitive ELISA: gp41 against biotinylated …(biotin)-NH2 for IgG 4E10.
Data set [3] deals with recombinant gp41 (Example 2 ELISA) (HIV-1) (UniProt P04578). Description: direct ELISA, antigen coated on wells, 4E10 at 5 µg/ml.
Data set [4] addresses peptide 94-1, …-NH2. Briefly: surface plasmon resonance and ELISA.
In data set [5] the target is peptide 33-1, NWFDITN-Aib-LWRR-NH2. Briefly: surface plasmon resonance and ELISA. For orientation: SPR reads the build-up and loss of mass on a sensor chip optically.
Data set [6] has as its target peptide 104-2, NWFc(CITO)WLWKKKK-NH2. Description: surface plasmon resonance and ELISA.
Data set [7] deals with peptide 94-1, …-NH2. Briefly: surface plasmon resonance and ELISA (Table 7).
Data set [8] has as its target peptide 104-2, NWFc(CITO)WLWKKKK-NH2. Briefly: surface plasmon resonance and ELISA (Table 7).
Data set [9] in a line: Circular dichroism spectroscopy of free peptides in solution (helicity). The class given is physicochemical. Particulars: FIG. 48. As for the experimental part:
To determine whether the imposed constraints increased the helicity of the peptides, each one was analyzed in solution using circular dichroism (CD) spectroscopy (FIG. 48). An Aviv spectropolarimeter Model 203-02 was used, with cells of 0.1 cm in length, a wavelength step of 0.5 nm and a bandwidth of 1.0 nm. One to three scans were reported. The exact peptide concentrations were determined by UV measurements at 280 nm on a Gison UV detector, model 116.
On the technique in general: Circular dichroism is widely used to follow secondary structure.

Data set [10] has as its target IgG 4E10. Description: Competitive ELISA (IC50): peptide competes with biotinylated 4E10-epitope peptide for IgG 4E10. It counts as binding, human. Here is the method: IC50, were determined by competitive ELISA using a constant concentration of biotinylated peptide and IgG with a variable concentration of gp41 peptides. Microwells were coated overnight at 4° C. with 50 μl PBS containing neutravidin (Pierce; 4 μg/ml). […] A mixture of a biotinylated 4E10-epitope peptide, […](biotin)-NH2 (SEQ ID NO: 88) (20 nM), IgG 4E10 (0.2 nM), and the competing peptide analog (3-fold dilution series starting at 10 μM) in 0.4% non-fat dry milk, 0.02% Tween and PBS was incubated in a separate 96-well plate at 37° C. for 2 hours. After washing the blocked plate, the mixture of 4E10, biotinylated peptide and competing peptide was added to the wells. After 20 minutes at room temperature, the Wells were washed five times, and a 1:500 dilution of goat anti-human IgG F(ab′)2 HRP conjugate (Pierce) was added. Following incubation at RT for 40 minutes, the wells were washed five times, and developed by adding 50 μl of TMB solution (Pierce) according to the manufacturer's instructions. After ˜20 minutes, wells containing TMB solution were stopped by adding 50 μl of H2SO4 (2M) and the O.D. at 450 nm was read on a microplate reader (Molecular Devices). The concentration of competitor peptide corresponding to a half-maximal signal (IC50) was determined by interpolation of the resulting binding curve. Each peptide competitor was tested in duplicate in at least two separate experiments.
IC50s were determined by competitive ELISA using a constant concentration of biotinylated peptide and IgG with a variable concentration of gp41 peptides. Microwells were coated overnight at 4° C. with 50 μl PBS containing neutravidin (Pierce; 4 μg/ml). […] Meanwhile, a mixture of a biotinylated 4E10-peptide epitope, […](biotin)-NH2 (SEQ ID NO: 88), (20 nM), IgG 4E10 (0.2 nM), and the competing peptide analogue (3-fold dilution series starting at 10 μM) in 0.4% NFDM, 0.02% Tween and PBS was incubated in a separate 96-well plate at 37° C. for 2 h. After washing the blocked plate, the mixture of 4E10, biotinylated peptide and competing peptide was added to the wells. After 20 min at room temperature, the wells were washed five times, and a 1:500 dilution of goat anti-human IgG F(ab′)2 HRP conjugate (Pierce) was added. Following incubation at RT for 40 min, the wells were washed five times, and developed by adding 50 μl of H2SO4 (2 M), and the O.D. at 450 nm was read on a microplate reader (Molecular Devices). The concentration of competitor peptide corresponding to a half-maximal signal (IC50) was determined by interpolation of the resulting binding curve. Each peptide competitor was tested in duplicate in at least two separate experiments.

Data set [11] deals with recombinant gp41 (Example 2 ELISA) (HIV-1) (UniProt P04578). Briefly: ELISA, Fab titrated on immobilized gp41.
Data set [12] has as its target recombinant IgG1(kappa) 4E10. Description: competitive ELISA.
The target in data set [13] is recombinant IgG1(kappa) 4E10. Briefly: competitive ELISA: peptide against biotinylated …(biotin)-NH2 for IgG 4E10.
Data set [14] concerns the target Fab 4E10. Description: SPR (Biacore 2000), Fab 4E10 on CM5 chip, peptide in flow.
For data set [15], the target named is recombinant IgG1(kappa) 4E10. Description: competitive ELISA, reference peptide of the alanine scan.
The target of data set [16] is Fab 4E10. Description: SPR (Biacore 2000), Fab 4E10 on CM5 chip, peptide in flow. The source holds these as a separate data set.
Data set [17] concerns the target recombinant IgG1(kappa) 4E10. Description: competitive ELISA: peptide against biotinylated …(biotin)-NH2 (20 nM) for IgG 4E10 (0.2 nM).
For data set [18], the target named is recombinant IgG1(kappa) 4E10. Description: cell-based or functional assay.
Data set [19] concerns the target recombinant IgG1(kappa) 4E10. Briefly: competitive ELISA for IgG 4E10.

Where two headings read alike, the source gives them in different places. Bridges are numbered along the chain shown (N, C = ends). Where no end group is shown, it is not given here. [ ]: non-standard residue; d: D form. Orn = NCCC[C@H](N)C(=O)O; Aib = CC(C)(N)C(=O)O Where only a bound is given, the exact number is not on record here.

The values that follow come from US20110124842A1 (priority 2003, published 2011).

By IC50 is commonly meant the concentration at which inhibition is half-maximal. The term EC50 (read off the curve) denotes the concentration needed to bring the measured effect to its halfway point. As a reminder, the Kd is the equilibrium constant for the complex coming apart. The low end stands for tighter binding, the high end for weaker binding. Usually koff stands for the first-order rate constant of dissociation. Broadly, the kon is the rate constant with which the complex forms. A low value points to slow association.

Sequence of recombinant IgG1(kappa) 4E10 (heavy, as listed by the source): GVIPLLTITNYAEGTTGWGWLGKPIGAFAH
Sequence of Fab 4E10 (heavy, as listed by the source): as above

Regarding “recombinant gp41 (residues 541-682 of HxB2; Viral Therapeutics, Inc.) (from UniProt P04578 541-682)”, the IC50 was determined as 10 nM in data set [1] and 0.25 µg/mL in [2].
Take recombinant IgG1(kappa) 4E10 (antibody): the fold higher affinity than for the synthetic peptide (KGND) in [3] was 4 fold. Further, the fold higher affinity than for the original peptide KGND in data set [4], in data set [5] and in data set [6] was 1000 fold throughout. In addition, the fold higher affinity than for peptide 33-1 in data set [7] and in data set [8] was 17 fold throughout.
In the case of NWFDITNWLWYIKBKBKK-NH2 [Peptide 119], in [9], the “helicity in solution by CD” value was “more helical 94-1”. In data set [10], the “IC50 (4E10 binding, competitive ELISA)” value is given as “the same IC50”. In addition, the IC50 in data set [10] (Table 6, constrained analogs, 4E10 binding, read-out: IC50) was found to be 10 nM.
For Fab 2F5, the EC50 (read off the curve) in data set [11] turned out to be 0.03 µg/mL.

B1: peptide 33-1, NWFDITN-Aib-LWRR-NH2 (peptide)
peptide: NWFDITN[Aib]LWRR-NH2
modifications: N-terminus assumed
SMILES: CC[C@H](C)[C@H](NC(=O)[C@H](CC(=O)O)NC(=O)[C@H](Cc1ccccc1)NC(=O)[C@H](Cc1c[nH]c2ccccc12)NC(=O)[C@@H](N)CC(N)=O)C(=O)N[C@H](C(=O)N[C@@H](CC(N)=O)C(=O)NC(C)(C)C(=O)N[C@@H](CC(C)C)C(=O)N[C@@H](Cc1c[nH]c2ccccc12)C(=O)N[C@@H](CCCNC(=N)N)C(=O)N[C@@H](CCCNC(=N)N)C(N)=O)[C@@H](C)O
Turning to B1, the fold increase of binding affinity over its control peptide 44-1 in [12] came to 3 fold. The IC50 in [13] fell in the range of 100 to 400 nM. Moreover, in data set [14], the Kd turned out to be 302 nM, the koff is 0.13 s⁻¹ and the on-rate constant (kon) was found to be 431000 M⁻¹ s⁻¹.

B2: peptide 102-2, KKB…BKBK-NH2 (peptide)
peptide: KK[Aib]NWFDITNWLWK[Aib]K[Aib]K-NH2
modifications: N-terminus assumed
SMILES: CC[C@H](C)[C@H](NC(=O)[C@H](CC(=O)O)NC(=O)[C@H](Cc1ccccc1)NC(=O)[C@H](Cc1c[nH]c2ccccc12)NC(=O)[C@H](CC(N)=O)NC(=O)C(C)(C)NC(=O)[C@H](CCCCN)NC(=O)[C@@H](N)CCCCN)C(=O)N[C@H](C(=O)N[C@@H](CC(N)=O)C(=O)N[C@@H](Cc1c[nH]c2ccccc12)C(=O)N[C@@H](CC(C)C)C(=O)N[C@@H](Cc1c[nH]c2ccccc12)C(=O)N[C@@H](CCCCN)C(=O)NC(C)(C)C(=O)N[C@@H](CCCCN)C(=O)NC(C)(C)C(=O)N[C@@H](CCCCN)C(N)=O)[C@@H](C)O
On to B2, for which, in [13], the concentration for half-maximal inhibition (IC50) was found to be 10 nM.

B3: peptide 74-2, c(CWFO)…-NH2 (peptide)
peptide: CWFXITNWLWKKKK
modifications: cyclic thioether between Cys 1 and ornithine (O) 4; C-terminal amide
B3: the IC50 in data set [13] is 230 nM. The Kd in [14] was 276 nM.

B4: peptide KGND (…) (peptide)
peptide: KGWNWFDITNWGK
modifications: not fully specified
As to B4, the concentration for half-maximal inhibition (IC50) in [13] was more than 10000 nM.

B5: peptide 104-1, NWFCITOWLWKKKK-NH2 (acyclic control) (peptide)
peptide: NWFCIT[Orn]WLWKKKK-NH2
modifications: not fully specified; printed as NWFCITOWLWKKKK-NH2
B5: the 50% inhibitory concentration (IC50) in data set [13] came out at 40 nM.

B6: peptide …-NH2 (peptide)
peptide: SLWNWFDITNWLWYIKKKK-NH2
For the molecule B6, in data set [15], the IC50 amounted to 10 nM.

B7: peptide 119, …BKBKK-NH2 (peptide)
peptide: NWFDITNWLWYIKXKXKK
modifications: B = Aib at positions 14 and 16; C-terminal amide
With B7, the IC50 in [13] was found to be 10 nM.

B8: peptide 84-1, …-NH2 (peptide)
peptide: NWFDITNWLWKKKK-NH2
B8 came in with a dissociation constant (Kd) in data set [16] of 100 nM. For the same molecule, the IC50 in data set [17] turned out to be 40 nM.

B9: peptide 104-2, NWFc(CITO)WLWKKKK-NH2 (peptide)
peptide: NWFCIT[Orn]WLWKKKK-NH2
modifications: bridge 4-7; not fully specified (bridges); printed as peptide 104-2, NWFc(CITO)WLWKKKK-NH2
With B9, the fold increase of affinity over its control peptide 104-1 in [12] amounted to 4 fold. For the same molecule, the concentration for half-maximal inhibition (IC50) in data set [13] is 10 nM. In data set [14], this molecule showed a Kd of 17 nM, a koff of 0.0034 s⁻¹ and a kon of 202000 M⁻¹ s⁻¹.

B10: peptide 44-1, …-NH2 (peptide)
peptide: NWFDITNWLWRR-NH2
Turning to B10, in data set [13], the IC50 worked out at 600 nM.

B11: peptide 84-2, …-NH2 (peptide)
peptide: WNWFDITNWLWKKKK-NH2
As to B11, the IC50 in data set [13] came to 120 nM.

B12: peptide 94-1, …-NH2 (peptide)
peptide: NWFDITNWLWYIKKKK-NH2
For the molecule B12, the IC50 in data set [13] came out at 10 nM. Also, in data set [18], the inhibition of 4E10 neutralization of replication competent HIV-1 SF162 and JR-CSF (TZM-bl cells, luciferase) amounted to 30 µg/mL. Besides, in data set [16], the Kd was determined as 18 nM. Also, in data set [19], the fold improvement of IC50 compared to KGND is more than 1000 fold and the fold improvement of IC50 over the starting peptide (84-1) was determined as 4 fold. In [14], this molecule yielded a Kd of 20 nM, a koff of 0.0138 s⁻¹ and a kon of 691000 M⁻¹ s⁻¹.
